Reference: paper PMC3656124, “DNA Topoisomerase II Is Involved in Regulation of Cyst Wall Protein Genes and Differentiation in Giardia lamblia” (PLoS Neglected Tropical Diseases, 2013)

T1: Topo IIC (Giardia lamblia, UniProt E2RU90 489-1491)
T1 sequence: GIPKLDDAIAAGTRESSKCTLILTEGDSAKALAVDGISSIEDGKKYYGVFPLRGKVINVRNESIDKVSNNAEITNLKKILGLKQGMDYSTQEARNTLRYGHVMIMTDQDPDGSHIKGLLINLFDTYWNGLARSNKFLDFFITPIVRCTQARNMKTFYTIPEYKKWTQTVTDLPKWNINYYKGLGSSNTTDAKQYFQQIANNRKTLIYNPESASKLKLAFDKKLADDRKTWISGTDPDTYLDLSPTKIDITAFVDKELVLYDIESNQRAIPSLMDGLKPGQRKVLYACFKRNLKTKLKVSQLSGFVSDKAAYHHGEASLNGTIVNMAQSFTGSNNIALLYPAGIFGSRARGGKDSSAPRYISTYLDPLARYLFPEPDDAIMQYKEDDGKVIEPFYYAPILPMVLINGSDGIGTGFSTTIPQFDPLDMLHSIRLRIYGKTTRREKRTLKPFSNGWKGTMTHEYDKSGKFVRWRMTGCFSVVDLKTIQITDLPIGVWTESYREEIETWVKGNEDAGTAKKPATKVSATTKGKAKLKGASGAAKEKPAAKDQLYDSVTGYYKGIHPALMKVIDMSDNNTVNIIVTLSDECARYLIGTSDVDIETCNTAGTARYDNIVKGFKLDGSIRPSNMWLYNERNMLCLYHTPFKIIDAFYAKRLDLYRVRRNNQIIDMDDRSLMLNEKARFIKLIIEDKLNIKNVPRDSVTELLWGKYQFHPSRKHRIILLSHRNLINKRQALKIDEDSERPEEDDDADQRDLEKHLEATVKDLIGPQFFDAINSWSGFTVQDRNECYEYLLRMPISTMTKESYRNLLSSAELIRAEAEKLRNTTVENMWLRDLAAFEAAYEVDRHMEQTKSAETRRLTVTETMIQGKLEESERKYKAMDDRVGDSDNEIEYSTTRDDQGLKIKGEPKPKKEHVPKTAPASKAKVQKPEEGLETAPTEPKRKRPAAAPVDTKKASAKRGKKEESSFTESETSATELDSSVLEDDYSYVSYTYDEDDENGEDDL

T2: Myb2 (Giardia lamblia, UniProt Q8ISM2 1-530)
T2 sequence: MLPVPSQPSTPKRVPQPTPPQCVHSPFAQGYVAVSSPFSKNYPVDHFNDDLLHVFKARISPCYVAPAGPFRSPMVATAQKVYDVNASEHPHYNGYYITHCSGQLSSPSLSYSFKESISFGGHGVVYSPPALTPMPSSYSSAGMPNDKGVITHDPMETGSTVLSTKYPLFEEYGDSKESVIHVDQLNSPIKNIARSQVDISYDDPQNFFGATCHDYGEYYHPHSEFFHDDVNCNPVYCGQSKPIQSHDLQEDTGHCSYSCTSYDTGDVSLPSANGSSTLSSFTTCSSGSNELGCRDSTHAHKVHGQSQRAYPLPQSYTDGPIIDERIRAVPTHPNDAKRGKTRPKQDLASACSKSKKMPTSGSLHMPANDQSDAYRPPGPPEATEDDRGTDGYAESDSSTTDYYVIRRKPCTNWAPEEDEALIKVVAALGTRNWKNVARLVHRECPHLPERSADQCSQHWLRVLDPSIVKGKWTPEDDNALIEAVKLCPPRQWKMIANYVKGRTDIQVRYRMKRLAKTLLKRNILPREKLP

B1: poly(A) with TC insertion (dsDNA)
DNA 1: AAAAAAAAAAATCAAAAAAAAAA
DNA 2: TTTTTTTTTTGATTTTTTTTTTT
B2: cwp3-30/+10 (dsDNA)
DNA 1: GTCTTTCCCAAAAAATAAGTTACTACTGATATGTTTTCTC
DNA 2: GAGAAAACATATCAGTAGTAACTTATTTTTTGGGAAAGAC
B3: cwp1-45/-1 (dsDNA)
DNA 1: GTTTACAACTCTCAGATCAAGAAACACAGAAATAAAATATCAGGG
DNA 2: CCCTGATATTTTATTTCTGTGTTTCTTGATCTGAGAGTTGTAAAC
B4: poly(A) (dsDNA)
DNA 1: AAAAAAAAAAAAAAAAAAAAAAA
DNA 2: TTTTTTTTTTTTTTTTTTTTTTT
B5: Topo II (Giardia lamblia ATCC 50803) (protein)
chain: MAQKAKIQRVTGSEHVLLRPDMYVGSVSAAETFLWLYEPGQGLYYTKANIVPGLCKIFDEIIVNASDNKQRDSDRSAEHKMTYIKCSVDVASGAISVENDGVEGLLHFDEKEKMYLPTLAFGILMTSSNYDDTEQRVTGGRNGYGAKLTNIFSTKFTVLLQENGQVFEQTWTDNMKNTKPPRIEDVRDKKKNFIRFSFTPDYMKFGMTSGLDRDHAAYMMRRAVDVAGCNIGLKLIINGTELKIANFEQYARMVYRSINPEITQFYETSKGDTAQVNTNDSDSDLDIKSAAKAKPKTKRTKKTIETNSLLIPVDDLSKPSDWTHDYLKVIPVNKFWDIGLGYTDSGELVQVSFVNSINTTDGGTHVDAILDLIMSQLNDVLIKSFQQDAKNAKKLTRQQLKSCLVLFIRSLVVNPSFDSQTKISLKTDKAALLRSLGSTQAELATLATQLVKRIQEIRPLWNSLRQASYNQAAKLLTKTDGSKTSQLLGIPKLDDAIAAGTRESSKCTLILTEGDSAKALAVDGISSIEDGKKYYGVFPLRGKVINVRNESIDKVSNNAEITNLKKILGLKQGMDYSTQEARNTLRYGHVMIMTDQDPDGSHIKGLLINLFDTYWNGLARSNKFLDFFITPIVRCTQARNMKTFYTIPEYKKWTQTVTDLPKWNINYYKGLGSSNTTDAKQYFQQIANNRKTLIYNPESASKLKLAFDKKLADDRKTWISGTDPDTYLDLSPTKIDITAFVDKELVLYDIESNQRAIPSLMDGLKPGQRKVLYACFKRNLKTKLKVSQLSGFVSDKAAYHHGEASLNGTIVNMAQSFTGSNNIALLYPAGIFGSRARGGKDSSAPRYISTYLDPLARYLFPEPDDAIMQYKEDDGKVIEPFYYAPILPMVLINGSDGIGTGFSTTIPQFDPLDMLHSIRLRIYGKTTRREKRTLKPFSNGWKGTMTHEYDKSGKFVRWRMTGCFSVVDLKTIQITDLPIGVWTESYREEIETWVKGNEDAGTAKKPATKVSATTKGKAKLKGASGAAKEKPAAKDQLYDSVTGYYKGIHPALMKVIDMSDNNTVNIIVTLSDECARYLIGTSDVDIETCNTAGTARYDNIVKGFKLDGSIRPSNMWLYNERNMLCLYHTPFKIIDAFYAKRLDLYRVRRNNQIIDMDDRSLMLNEKARFIKLIIEDKLNIKNVPRDSVTELLWGKYQFHPSRKHRIILLSHRNLINKRQALKIDEDSERPEEDDDADQRDLEKHLEATVKDLIGPQFFDAINSWSGFTVQDRNECYEYLLRMPISTMTKESYRNLLSSAELIRAEAEKLRNTTVENMWLRDLAAFEAAYEVDRHMEQTKSAETRRLTVTETMIQGKLEESERKYKAMDDRVGDSDNEIEYSTTRDDQGLKIKGEPKPKKEHVPKTAPASKAKVQKPEEGLETAPTEPKRKRPAAAPVDTKKASAKRGKKEESSFTESETSATELDSSVLEDDYSYVSYTYDEDDENGEDDL
B6: poly(A) with TT insertion (dsDNA)
DNA 1: AAAAAAAAAAATTAAAAAAAAAA
DNA 2: TTTTTTTTTTAATTTTTTTTTTT
B7: ran-51/-20 (dsDNA)
DNA 1: TAAAATAAATTAAATCGAAATTAAAACTTTAA
DNA 2: TTAAAGTTTTAATTTCGATTTAATTTATTTTA
B8: topo II-85/-40 (dsDNA)
DNA 1: TGTAAATCAATATTATCGTCCTACAGCTGCTAGCTTGGTGACAGGA
DNA 2: TCCTGTCACCAAGCTAGCAGCTGTAGGACGATAATATTGATTTACA
B9: 18S-30/-1 (dsDNA)
DNA 1: GGCGCCCGGCCCGCGGCGCCCGCGCCCGGC
DNA 2: GCCGGGCGCGGGCGCCGCGGGCCGGGCGCC
B10: cwp1-90/-46 (dsDNA)
DNA 1: CTGGCTAACAGTCTACAGTCTACAATTTACAGTATACAATCTACA
DNA 2: TGTAGATTGTATACTGTAAATTGTAGACTGTAGACTGTTAGCCAG
B11: cwp2-30/+8 (dsDNA)
DNA 1: CAGCAGCTCAACAGTGGCTGGGAAAATAAAATGATCGC
DNA 2: GCGATCATTTTATTTTCCCAGCCACTGTTGAGCTGCTG
B12: 18S-60/-31 (dsDNA)
DNA 1: CCGTGCCAGGCGGCGGCCCCCGCGCAGGGA
DNA 2: TCCCTGCGCGGGGGCCGCCGCCTGGCACGG

What was measured:
Topo IIC [1] = biological target: T1, Topo IIC; assay: competition; 200-fold excess vs labeled IIBS; EMSA: 0.02 pmol 5'-labeled probe, 5 ng protein, 20 ul, 0.5 ug poly(dI-dC), 15 min, room temperature, 6% acrylamide gel; buffer, salt and pH only by citation; details: protein: recombinant; tags: C-terminal V5-His; chain copies: 2
Topo IIC [2] = biological target: T1, Topo IIC; assay: EMSA; EMSA: 0.02 pmol 5'-labeled probe, 5 ng protein, 20 ul, 0.5 ug poly(dI-dC), 15 min, room temperature, 6% acrylamide gel; buffer, salt and pH only by citation; details: protein: recombinant; tags: C-terminal V5-His; chain copies: 2
[3] = substrate: Nc1ncnc2c1ncn2[C@@H]1O[C@H](COP(=O)(O)OP(=O)(O)OP(=O)(O)O)[C@@H](O)[C@H]1O; assay: coupled pyruvate kinase/lactate dehydrogenase ATPase assay (NADH, A340), Lineweaver-Burk; format: biochemical, Giardia duodenalis; details: without DNA, 37 °C, 8 ng Topo II
Myb2 = biological target: T2, Myb2; assay: EMSA; EMSA: 0.02 pmol 5'-labeled probe, 5 ng protein, 20 ul, 0.5 ug poly(dI-dC), 15 min, room temperature, 6% acrylamide gel; buffer, salt and pH only by citation; details: protein: recombinant

Binder | binding result (Topo IIC [1]) | also measured
B1 | binds | 
B2 | binds | 
B3 |  | binding result (Topo IIC [2]): binds
B4 | binds | 
B5 |  | Km [3]: 210 µM
B6 | binds | 
B7 | binds | 
B8 |  | binding result (Myb2; label: 5'-32P): binds
B9 |  | binding result (Topo IIC [2]): no binding
B10 |  | binding result (Myb2; label: 5'-32P for Myb2): binds
B11 | binds | 
B12 |  | binding result (Topo IIC [2]): no binding
